This is an account of results in patent publication US20110104667.

The target in the data set is infectious prion protein PrPCWD (CWD prion, elk strain E2) (Cervus canadensis (elk)?) (UniProt P67986). Nature of the data set: EMSA. Also noted: unit not given here. Background: Mobility shift assays separate free from complexed probe on a gel.
Sequence of infectious prion protein PrPCWD (CWD prion, elk strain E2) (Cervus canadensis (elk)?) (P67986 25-233): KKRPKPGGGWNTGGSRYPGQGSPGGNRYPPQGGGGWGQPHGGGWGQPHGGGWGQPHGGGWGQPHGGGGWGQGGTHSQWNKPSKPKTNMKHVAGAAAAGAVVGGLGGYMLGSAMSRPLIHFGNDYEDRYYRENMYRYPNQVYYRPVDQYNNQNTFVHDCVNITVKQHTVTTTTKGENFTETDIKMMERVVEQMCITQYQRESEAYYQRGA

In turn, “TACGACTCACTATAGGGATCCNNNNNNNNNNNNNNNNNNNNNNNNNNNNGAATTCCCTTTAGTGAGGGTT [70-mer DNA randomer library, PrPCWD-retained fraction]” showed a Kd of 6e-05.
